Laboratory results: publication doi:10.1101/2023.05.14.540690

Biological target: stressed NISTmAb monoclonal antibody
Assay: AUC; sedimentation velocity at 50,000 rpm and 20 °C; c(s) analysis in SEDFIT (command line operated, and repeated manually on the same data); stressed, partially denatured sample

stressed NISTmAb monoclonal antibody
percent of signal in higher aggregates (command line analysis): 51.8% | percent of signal in higher aggregates (manual analysis of the same data): 51.7% | percent of signal in the dimer peak: 12.5% | stoichiometry N: 2
